Protein production data for 25 sequences are collected here from a protein production outcome set (Wang et al. 2014).
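Also: failed if final PepcDB status was selected cloned or expressed and not failed if soluble or beyond.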

This data set in a line: label from the status in PepcDB records.
Turning to “MRLERTFDPNDLSTQNMESPICLPIGFVHFLAQSQTLQQVLDTVAEWINRIFESDRTSITLYENSDYLKVYSFSGNKAIPADFLVPIDQAFVGRVFKNQQLIICDDVSQSDELDCVMLTSSGMGTCMDAPLMHGQMCLGTLNVAHHQTHFYTKEQAAQLQCIANWIALNIALHIQIMKMEHLATTDDLTGIPNRREFMRQIEHRLSEFRTQGIKFHVAILDLDNFKKLNDKFGHDAGDKSLIHAANTIKGHLRECDLLARVGGEEFAIVLRSRSSQEAMDTLETIRNALETTTIRYSGRDMTFTASIGVTQVCGLDDSFEPLVKRADLALYKAKETGRNRVEINHSEHQGVSNEQ”, the protein production entry was “failed”.

As for “MSVTVRVPAKVNVQLAVGAARPDGFHDLANVFLAVSLYDEVTATPAADGLRVTCEGPDAGQVPLDRTNLAARAAEALAARYGRAPDVHLHIAKDIPVAGGMAGGSADGAGALLACDALWGTGASREELLEICAGLGSDVPFSLVGGAALGTGRGERLAELE”, the protein production result is “failed”.

For “MPKKGSRPDRPSRRCARMTSTVPALGTRSAEGSALQAVLLDMDGTLVDTEGFWWDVEAEVFAALGHPLDESWRHVVVGGPMARSAGFLIEATGADITLAELTVLLNDGFEARIGRTLPLMPGAARLLAELAAHEIPTALVSASHRRIIDRVLTSLGSQHFALTVAGDEVARTKPFPDPYLLAASGLGAEPARCAVIEDTATGVAAAEAAGCRVVAVPSVAPIAPAARRTVVTSLEEVDLPFLRGLMTEMR”, the protein production entry is reported as “failed”.

Regarding “GSHMDKTFCVVVQNRIKEGYRRAGFSFHLGDNSLAAVSESQLAQLKADPRLVVQITETGSQEGGEGLSKEPAGSDEQKQLRADPPSTDLNTFTVEQLKAQLTERGITFKQSATKAELIALFAPADGEKSEA”, the protein production entry is listed as “not failed”.

Consider “NHSHSLAVIGSRNATQYTSQSLNYLFPSFRQLNMAIVSGLARGADSVAHQTALKYLLPTIGVLGFGHCYHYPKATLNLRTKVERNGLVISEYPPFSPISKHKFPERNRLISGLSRGVLITEAEERSGSQITIDCALEQNRNVYVLPGSMFNKMTKGNLRRINEGAQVVIDESSILYDYLF”, for which the protein production result is listed as “failed”.

Consider “GTTVPAPIMQTTDNSLTWLLQNLLDRTPGTRHALVLSRDGLRLCWTEHLTLDRADQLAAICSGIQALAQGASVEFGNGTGGVRHSMTEFHGGLLFIVEAGEGAHLAVVAVEDADPGVVGHQMTELVEQIGEHLRAEPRH”, for which the protein production result is listed as “failed”.

For “MVRRTRAEMEETRATLLATARKVFSERGYADTSMDDLTAQASLTRGALYHHFGDKKGLLAAVVEQIDAEMDERLQAISDTAEDDWEGFRCRCRAYLEMALEPEIQRIVLRDARAVLGGASPDSQRHCVESMQRLIDNLIRQGVVAEADPQALASLIYGSLAEAAFWIAEGEDGNARLAQGVAALELLLRGLLVKPR”, the protein production result was “not failed”.

For “MSETAIQTKTQARQRKVFAHHHVQHYRSQLERRISHSPQFREGKVINAMPHITATPSWWQTAWSYFGGRAQLKPNAQLPVAPLNLQALQTRSKALRVTWLGHSSLFIEVDGLRVLTDPVFDYASPWIAKAWFARNLPNSGVREQLPLPDVIVISHDHYDHLEQASVVYYAAHSVTFYVPLGVGQHLIRWGVSPERIIEFDWWEQIKREGVEFICTPANHNSGRYYLDHNATLWCSWVIKGHQETLYFSGDSAYDTHFAKIAERCGPIDLACLEVAADVKQHQGYPVENWGHMQAKHTVQAFRDLQAKKLLPIHWATYELFTHQWDEPIADLVKHCQEQSITLLTPMAGESLTMANHSASHAWWQGLETEPMSGARYWQMGLACSLLLLLMVV”, the protein production entry is recorded as “failed”.

On to “MSQFWYSEETASRLAEELLQQAGEHGRIACLSAPSVYQKLKQLESVRSDGVSAVLLEFDRRFAAYGDEFVFYDYNNPLCLPEDLLPQSFDIVIADPPYLSEECLSKVTLTVKHLTKGKILLCTGAIMEEHAGKLLDLKMCSFLPRHNHNLANEFRCYVNYESRLLS”, for which the protein production entry was “failed”.

With “MNRKKLQKLTDTLTKNCKHFNKFEVNCLIKLFYDLVGGVERQGLVVGLDRNAFRNILHVTFGMTDDMIMDRVFRGFDKDNDGCVNVLEWIHGLSLFLRGSLEEKMKYCFEVFDLNGDGFISKEEMFHMLKNSLLKQPSEEDPDEGIKDLVEITLKKMDHDHDGKLSFADYELAVREETLLLEAFGPCLPDPKSQMEFEAQVFKDPNEFNDM”, the protein production entry is recorded as “failed”.

Take “MKSWIVKEIKINGLSYFGPLIFTVLPIAERIYKISLNSYIMINYLILVIFLSFICTYLVLSNLFNGIMYTLTYTVGISPKEIILTRLFLFSTIPVLPIAMALWMTSSLTTLAKFIIQIYILVLMSTIIGIIFKNDIIALIMDFIISALGLSVKINFLFPFLSGQLNPLSGIIVVLLLALTIYLLSNVELQKVERV”: the protein production result is recorded as “failed”.

Regarding “MPDGDFITLDRVEKVFDVRRKTGFLRSERRRVRAVDSLSFTVARGEMVGYIGPNGAGKSTTIKMLTGILTPSGGRLRVAGIDPSRERTRLAARIGVVFGQRTTLWWDLPLIDSYRLMHRMYRIPDGRYRENLDRCVELLELGDLLDVPVRQLSLGQRMRGDIAAALLHDPEVLYLDEPTIGLDVISKARVREFLRELNAERGTTVLLTTHDLQDIEQLCGRVMVIDHGRLMYDGPLAGLHEVGDSERTLVVDLARELPPIEAAPARVVKVEGPRQWLAFPASESAAPLVARIAAAYPLVDLSVREPDIEAVIAKMLQSMGDTPQPPPEQAEHVVSLEHHHHHH”, the protein production entry is recorded as “not failed”.

Turning to “MGVLRVGLCPGLTEEMIQLLRSHRIKTVVDLVSADLEEVAQKCGLSYKALVALRRVLLAQFSAFPVNGADLYEELKTSTAILSTGIGSLDKLLDAGLYTGEVTEIVGGPGSGKTQVCLCMAANVAHGLQQNVLYVDSNGGLTASRLLQLLQAKTQDEEEQAEALRRIQVVHAFDIFQMLDVLQELRGTVAQQVTGSSGTVKVVVVDSVTAVVSPLLGGQQREGLALMMQLARELKTLARDLGMAVVVTNHITRDRDSGRLKPALGRSWSFVPSTRILLDTIEGAGASGGRRMACLAKSSRQPTGFQEMVDIGTWGTSEQSATLQGDQT”, the protein production entry is on record as “failed”.

Take “MTENTSSFPRSSGELHEFTRADVWGGFTQLLPLSFFVVVFGLAFGVAAVQTGLDAFPTLLMSTLVFAGASQFATLEMWGAEVPLVPVLITVFAINARHLLMGATLYPWLRQLPPHKRYGIMLLASDANWAMAMNAFGKKEPGFGLLVGGGLALWGFWIVGTWMGIYFGGAIKDPVSLGLDMVMGCFLLSMVAGGPKNLRIFAIWGMAAASSLMAYWYLPENSHVVVGAIAGGILGACWKEKKA”: the protein production entry is “failed”.

Regarding “MSLSNHSSDIEVGHSMNLTNHFLVAMPSMKDPYFKRSVIYICEHNQDGAMGLMINAPIDITVGGMLKQVDIEPAYPQSHQENLKKPVFNGGPVSEDRGFILHRPRDHYESSMKMTDDIAVTTSKDILTVLGTEAEPEGYIVALGYSGWSAGQLEVELTENSWLTIEADPELIFNTPVHEKWQKAIQKLGISPAQLSSDAGHEGGSHHHHHH”, the protein production result is reported as “not failed”.

For the sequence “MNTSYSQSTLRHNQVLIWLCVLSFFSVLNEMVLNVSLPDIANEFNKLPASANWVNTAFMLTFSIGTALYGKLSDQLGIKNLLLFGIMVNGLGSIIGFVGHSFFPILILARFIQGIGAAAFPALVMVVVARYIPKENRGKAFGLIGSLVAMGEGVGPAIGGMVAHYIHWSYLLLIPTATIITVPFLIKLLKKEERIRGHIDMAGIILMSAGIVFFMLFTTSYRFSFLIISILAFFIFVQHIRKAQDPFVDPELGKNVFFVIGTLCGGLIFGTVAGFVSMVPYMMKDVHHLSTAAIGSGIIFPGTMSVIIFGYIGGLLVDRKGSLYVLTIGSALLSSGFLIAAFFIDAAPWIMTIIVIFVFGGLSFTKTVISTVVSSSLKEKEAGAGMSLLNFTSFLSEGTGIAIVGGLLSIGFLDHRLLPIDVDHSTYLYSNMLILFAGIIVICWLVILNVYKRSRRHG”, the protein production entry was “not failed”.

On to “MLKYSMHLNIILLEASLELVPKEIVNHPAVIKNAKRRNKKPEDTLLDISLHYHAMKYLENSHKRGRPDILHQALLVILTDPVIKGDIFIHTIQSKIIKVNPNMRPPKNYLRFIGLMEQLLKYGKIPINGDETLMEVTNLTLDNIVNRYDLILLSEKGEKINPEEICKLDEKWLLGIGAFPHGDFSDKILNLAKKIYSISGFPLETQQVLCRIFSACNSILGWPLEHHHHHH”, for which the protein production result is listed as “failed”.

“MKILIDGDACPKAVLQICLKKGRQYGIPVWTVASFNHEIASDHHIVVGNAPQETDLKVVNLSEAGDIIVTQDIGLAAMVLGKGARALSPTGKEYRPESIANLLEERELKAKYRRSLEHHHHHH”: the protein production entry is listed as “not failed”.

Regarding “MATLTRLFIHPVKSMRGIGLTHALADVSGLAFDRIFMITEPDGTFITARQFPQMVRFTPSPVHDGLHLTAPDGSSAYVRFADFATQDAPTEVWGTHFTARIAPDAINKWLSGFFSREVQLRWVGPQMTRRVKRHNTVPLSFADGYPYLLANEASLRDLQQRCPASVKMEQFRPNLVVSGASAWEEDSWKVIRIGDVVFDVVKPCSRCIFTTVSPEKGQKHPAGEPLKTLQSFRTAQDNGDVDFGQNLIARNSGVIRVGDEVEILATAPAKIYGAAAADDTANITQQPDANVDIDWQGQAFRGNNQQVLLEQLENQGIRIPYSCRAGICGSCRVQLLEGEVTPLKKSAMGDDGTILCCSCVPKTALKLTRLEHHHHHH”, the protein production result was “failed”.

Take “MGVPEINEYGQQVNDLVPGWQGAQVLRRTALNGRFCRLEPLDVDRHAADLFAAYALGDNSDWTWLASTRPESVTATAHWIAGKVNDDVLVPYAVVDLRSEQAVGIVSYMAIEREMGTVEIGHVTWSRRMKNTPLGTEAVWLLLKNGFDHGYRRLEWKCDSMNVASRRAAERLGFSWEGRLRQRLVRKGRTRDSDMLSIIDGEWPARDAALRAWLAAENFTADGQQIKRLEAFR”: the protein production entry is reported as “failed”.

“GFAAYIWGSDFSFEVSAYAVAEREVPVADWVLRRIVPYRKCYGIDPEEFSSYRNAADSEIFMAYLDDQPVGHVVVSTNWNGYAHIDELAVHAPARRHGVARALLDVAQFWSRRKKLPGMMLETQNNNLGACRLYEQCGYVVGGVDHLRYRGIDPQTAEVAIFWYRLFANELE”: the protein production result is listed as “failed”.

In the case of “MNEELIKEKNFSDSVLSSYRMSLDHKKLQNKMIDNMLFRDISGGKKRTFVEEVEDNEEKNNKSAQKCIDGNDKNFIESRKKALENFQQNENNYDCTYKTIKKKNISGCNTTTKLKDVNSSEECQLCLMPNSDSLHGNFPPTFYKLTCDHIFHLMCLYETVIRRECRKTCCICHNELSENDKNEIINKVKLEKKENEKKSKLLFKVMKLQAENKDYPRKDICS”, the protein production entry is recorded as “failed”.

Regarding “MMDSCIRIAGIIGESIVDGPGIRLVVFAQGCPHHCPGCHNPETHAYEGGKSVAIAEILQRLAMNPLLDGITLSGGEPFAQAAGFALLAQSARQRGFHVMTYSGYTYEELTASSEQNPAWALLLEQTDLLVDGPFQLAERNLLLPFRGSENQRVIDVQESLRQGKVVLASVLEHHHHHH”, the protein production entry was “failed”.

Turning to “MLEAPLLSICIPAYNRPNWLQRGLESIAVGEGSDIEIVITDDSDTDQGQAIASEVLKNWSGSWCYEHHQQPLGMAQNWNRAIQWATGQYVMVLHDDDFFLPQGLGLLVNKLRQLGSSSPVLLFGVRVVDAQERVVKRQGFRQDKLLPPHDALIRLFSDSSFVRFPAMVIRRDLFTEVGYFNPDWREPCDLEMWMRLFARYGVYCCREATVAYRVHGQALTMGSFHGETVNILLRLFGELEKLNILTTRDIEFCKGLFFHQYILAGAWRQLRRRRWREFKQVMGLFDLPELKSLSCPVKWRFLRGLFSLTLEHHHHHH”, the protein production entry is “failed”.

Take “MAGEKAQKKGKEKWKEKTWYTVESPPYLGSKEVTVALGEDPESMVNRIVEVPISDLTGNFKKSNEKALFRITGCEGTKCKTIFIGHYIGDDYIRRLVRRRKERIDIIEDVKTSDGSIITVKIVVVSDGKLTNTKKSEIRKALTSFIVSKGSQLSYADFVRYLIGDDSYNDMVEATKNIYPLRKIEIRKSELVSLSGMQEPQKNEPAPGGEAIAQNLEHHHHHH”: the protein production result was “not failed”.
